A value given as a limit tells only on which side of the number the result lay.

Results on 1 molecule are retold here after patent publication US20130046257A1, “METHODS OF USING AGENTS THAT MODULATE CLAUDIN EXPRESSION” (priority 2010, published 2013).

The subject of series [1] is primary human keratinocytes (PHK). Nature of the series: Trans Epithelial Electric Resistance (TEER) of PHK. Format: cell-based. On the procedure: Human keratinocytes were isolated from neonatal foreskin. Poumay et al., “Basal Detachment of the Epidermis Using Dispase: Tissue Spatial Organization and Fate of Integrin Alpha 6 Beta 4 and Hemidesmosomes,” J. Invest. Dermatol. 102:111-7 (1994), which is hereby incorporated by reference in its entirety. PHK were cultured in Keratinocyte-SFM (Invitrogen/Gibco) with 1% Pen/Strep, 0.2% Amphotericin B (Invitrogen/Gibco). To differentiate PHK, cells were grown in DMEM (Invitrogen/Gibco) with 10% heat-inactivated fetal bovine serum (Invitrogen/Gibco) and 1% Pen/Strep, 0.2% Amphotericin B (Invitrogen/Gibco). For TJ modulation experiments, the following cytokines were added alone or in combination to the differentiation media; human IL-4 (50 ng/ml; R&D system) and IL-13 (50 ng/ml; R&D system).
PHK were plated at a subconfluent density of 2.5−3×10^4 cells/filter in Transwell insert and cultured in Keratinocyte-SFM media until confluent. TEER was measured using an EVOMX voltohmmeter (World Precision Instruments, Sarasota, Fla.). The resistance of cell-free filters was subtracted from each experimental value.
PHK were plated on glass coverslips at 2-3×10^5 cells/well in a 6-well plate or at 2-3×10^4 cells/filter in Transwell insert (Costar; PET membrane, 0.4 μm pore size, 6.5 mm insert) in Keratinocyte-SFM without antibiotics. The next day after plating, cells were transfected with claudin-1 specific or control (scrambled) siRNAs (Santa Cruz) using Lipofectamine™ 2000 transfection Reagent (Invitrogen). TEER and permeability experiments were conducted 48 hours after PHK were switched to differentiation media.
TEER was measured in PHK as described above. PHK were stimulated with S. aureus-derived peptidoglycan (PGN, 0.2-20 μg/ml, n=3-7) (FIG. 19A), Malp-2 (10-1000 ng/ml, n=3) (FIG. 19B), and Pam3CSK4 a TLR1/2 ligand (0.01-20 μg/ml, n=3-6) (FIG. 19C). Data are presented by analyzing the area under the TEER curve and normalized to the mean values for the control group (media alone)*p<0.05; **p<0.01.

Another series relates to claudin-1 transcripts. The experiment in a line: qPCR of claudin-1 transcripts in PHK transfected with claudin-1 siRNA. Format: cell-based, human. The conditions noted are these: siRNA 100 nM, 2^-ΔΔCt, GAPDH normalised, listed as Cldn1 siRNA. The method, then: QPCR was performed using the iScript™ cDNA Synthesis kit and iQ™ SYBER Green Supermix assay system (Bio-Rad Laboratories). All PCR amplifications were carried out in triplicate on an iQ5 Multicolor real-time PCR detection system (Bio-Rad). Primers were designed and synthesized by Integrated
DNA Technologies (Table 1). Relative gene expression was calculated by using the 2^−ΔΔCt method. Livak and Schmittgen, “Analysis of Relative Gene Expression Data Using Real-Time Quantitative PCR and the 2(-Delta Delta C(T)) Method,” Methods 25:402-8 (2001), which is hereby incorporated by reference in its entirety. The normalized Ct value of each sample was calculated using GAPDH as an endogenous control gene.
PHK were plated on glass coverslips at 2-3×10^5 cells/well in a 6-well plate or at 2-3×10^4 cells/filter in Transwell insert (Costar; PET membrane, 0.4 μm pore size, 6.5 mm insert) in Keratinocyte-SFM without antibiotics. […]
siRNA approach was used to selectively downregulate claudin-1 in primary human keratinocytes (PHK). […] Relative gene expressions were calculated by using the 2^−ΔΔCt method, in which Ct indicates cycle threshold, the fractional cycle number where the fluorescent signal reaches detection threshold. The normalized Ct value of each sample was calculated using GAPDH as endogenous control gene. […]

B1: CLDN1 siRNA: claudin-1 siRNA (h), Santa Cruz; a pool of 3 separate strands, SEQ ID NO: 10-15 (nucleic acid)
chain 1: UACAUAGGCAUAGUUCAUGNN
chain 2: CAUGAACUAUGCCUAUGUANN
chain 3: AACGUAUGCAGUUAAUUCCNN
chain 4: GGAAUUAACUGCAUACGUUNN
chain 5: UGAAGAUCUAUGUAUGUGGNN
chain 6: CCACAUACAUAGAUCUUCANN
modifications: chemistry not given here
As for B1, the “TEER (FIG. 12C legend)” value in series [1] (CLDN1 siRNA, PHK, n=4) came out at 80.6±6.4. Also, the TEER in series [1] (siRNA 100 nM, PHK 48 hours after switch to differentiation media, n=4) came to 80.6±6.4 ohms×cm^2. The “drop in TEER” value in series [1] (siRNA 100 nM, vs scrambled siRNA-transfected PHK) was not below 50%. Moreover, the “claudin-1 transcripts, fold of control transfected cells” value in the series with claudin-1 transcripts was 0.5%±0.06 fold.
